# Assay results as given in paper PMC2643056 (Molecular cell, 2008).
# B1: recombinant Rpn10, full length (natural protein, S. cerevisiae, UniProt P38886 1-268, looked up)
# chain: MVLEATVLVIDNSEYSRNGDFPRTRFEAQIDSVEFIFQAKRNSNPENTVGLISGAGANPRVLSTFTAEFGKILAGLHDTQIEGKLHMATALQIAQLTLKHRQNKVQHQRIVAFVCSPISDSRDELIRLAKTLKKNNVAVDIINFGEIEQNTELLDEFIAAVNNPQEETSHLLTVTPGPRLLYENIASSPIILEEGSSGMGAFGGSGGDSDANGTFMDFGVDPSMDPELAMALRLSMEEEQQRQERLRQQQQQQDQPEQSEQPEQHQDK
# Target: T1, His6-Dsk2 (S. cerevisiae, UniProt P48510 1-373)
# T1 sequence (looked up): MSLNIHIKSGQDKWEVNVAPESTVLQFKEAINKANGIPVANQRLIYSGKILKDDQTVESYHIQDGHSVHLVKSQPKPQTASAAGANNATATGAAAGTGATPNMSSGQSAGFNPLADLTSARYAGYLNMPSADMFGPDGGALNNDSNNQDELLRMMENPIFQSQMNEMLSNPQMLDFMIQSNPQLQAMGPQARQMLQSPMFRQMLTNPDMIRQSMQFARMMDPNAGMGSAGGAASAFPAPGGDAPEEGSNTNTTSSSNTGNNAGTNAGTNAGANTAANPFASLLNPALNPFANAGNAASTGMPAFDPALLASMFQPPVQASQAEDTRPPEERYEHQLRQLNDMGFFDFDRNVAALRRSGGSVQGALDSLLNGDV
# Assay: far-Western, overlay or dot blot
binder,measurement,value
B1,binding result,binds
